Marks after values point to notes of the source that are not given here.
B1: IgG1-AXL-726-M101L: point mutant of IgG1-AXL-726, VH SEQ ID NO:32, VL SEQ ID NO:33 (antibody, V domains shown)
VH: QVQLQQWGAGLLKPSETLSLTCAIDGGSFSGYYWSWIRQPPGKGLEWIGEISHSGRTNYNPSLKSRVTISIDTSKNQFSLKLSSVAAADTAVYYCARFITLIRGAIITHFDYWGQGALVTVSS
VL: DIQMTQSPSSLSASVGDRVTITCRASQGISSWLAWYQQKPEKAPKSLIYAASSLQSGVPSRFSGSGSGTDFTLTISSLQPEDFATYYCQQYHSYPYTFGQGTKLEIK
modifications: homo sapiens

Columns and labels:
[1] = test system: MDA-MB-231 and Calu-1 cells; assay: Internalization of cell surface bound HuMab-AXL by flow cytometry; format: cell-based, human; settings: 1 hour 4° C, then overnight 37° C versus 4° C
Description: Internalization of cell surface bound HuMab-AXL antibodies to MDA-MB-231 and Calu-1 cells (human lung carcinoma cell line; ATCC, catalognumber HTB-54) was evaluated by flow cytometry. 50,000 cells were seeded in 96-well tissue culture plates and allowed to attach for 6 hrs at 37° C. Plates were incubated at 4° C. for 30 minutes before incubation with serial dilutions of AXL-antibodies (final concentration range 0.0032-10 μg/mL) at 4° C. for 1 hour. Subsequently, the medium was replaced by tissue culture medium without antibody and cells were incubated overnight (16-18 hours) at 37° C. or 4° C. […] Finally, cells were washed twice in PBS/0.1% BSA/0.02% azide, resuspended in 120 μL PBS/0.1% BSA/0.02% azide and analyzed on a FACS Cantoll (BD Biosciences).
Binding curves were analyzed using non-linear regression (sigmoidal dose-response with variable slope) using GraphPad Prism V5.04 software (GraphPad Software, San Diego, Calif., USA).

[2] = test system: CV1664 tumors; assay: Cervical cancer PDX model CV1664; format: in vivo, BALB/c nude mice; settings: 4 mg/kg at day 0 and 7
Description: Inoculation of tumor fragments into BALB/c nude mice and randomization was performed as described in Example 21.

[3] = test system: SKMEL147 tumors; assay: SKMEL147 melanoma xenograft model; format: in vivo, NMRI nude mice; settings: 4 mg/kg i.v. on day 12 and day 19 after tumor cell injection
[4] = test system: A431 cells; assay: Antibody-dependent cell-mediated cytotoxicity (51Cr release); format: cell-based, human; settings: concentrations up to 10 μg/mL
Description: The ability of anti-AXL antibodies to induce ADCC of A431 epidermoid carcinoma cells was determined as explained below. As effector cells, peripheral blood mononuclear cells from healthy volunteers (UMC Utrecht, The Netherlands) were used.
A431 cells were collected (5×10^6 cells) in culture medium (RPMI 1640 culture medium supplemented with 10% fetal calf serum (FSC)), to which 100 μCi ^51Cr (Chromium-51; Amersham Biosciences Europe GmbH, Roosendaal, The Netherlands) had been added, and the mixture was incubated in a 37° C. water bath for 1 hour (hr) while shaking. After washing of the cells (twice in PBS, 1200 rpm, 5 min), the cells were resuspended in RPMI1640/10% FSC and counted by trypan blue exclusion. Cells were diluted to a density of 1×10^5 cells/mL.
Peripheral blood mononuclear cells (healthy volunteers, UMC Utrecht, Utrecht, The Netherlands) were isolated from 45 mL of freshly drawn heparin blood by Ficoll (Bio Whittaker; lymphocyte separation medium, cat 17-829E) according to the manufacturer's instructions. After resuspension of cells in RPMI1640/10% FSC, cells were counted by trypan blue exclusion and diluted to a density of 1×10^7 cells/mL.
50 μl of ^51Cr-labeled targets cells were pipetted into 96-well plates, and 50 μl of antibody were added, diluted in RPMI1640/10% FSC (3-fold dilutions at final concentrations range 0.01-10 μg/mL). Cells were incubated (room temperature (RT), 15 min), and 50 μl effector cells were added, resulting in an effector to target ratio of 100:1 (for determination of maximal lysis, 100 μl 5% Triton-X100 was added instead of effector cells; for determination of spontaneous lysis, 50 μL target cells and 100 μL RPMI1640/10% FSC were used). Cells were incubated overnight at 37° C. and 5% CO2. After spinning down cells (1200 rpm, 10 min), 70 μL of supernatant was harvested into micronic tubes, and counted in a gamma counter. The percentage specific lysis was calculated as follows:
% specific lysis=(cpm sample−cpm target cells only)/(cpm maximal lysis−cpm target cells only),
wherein cpm is counts per minute.

[5] = molecular target: T1, human AXL (Homo sapiens, UniProt P30530); assay: Flow cytometry binding to HEK293T cells transfected with full length human AXL; settings: at least 3 experiments
T1 construct: expression constructs for full length human AXL; expressed in transfected cells; host or cells: HEK293T

[6] = molecular target: T2, AXLECDHis (extracellular domain of human AXL) (Homo sapiens, UniProt P30530); assay: Binding affinity by Bio-Layer Interferometry (Octet); settings: soluble AXLECDHis, 30° C, 1:1 model
T2 construct: the extracellular domain (ECD) of human AXL (aa 1-447) with a C-terminal His tag (AXLECDHis); His tag (C); made in house; host or cells: HEK-293F

[7] = molecular target: T3, human AXL with a cynomolgus monkey extracellular domain (ECD) (Homo sapiens, UniProt P30530, P441T/S191N/S285L/T105A/T112A/T125N/T443A); assay: Flow cytometry binding to HEK293T cells transfected with human AXL with cynomolgus ECD; settings: at least 3 experiments
T3 construct: aa 1-447); expressed in transfected cells; host or cells: HEK293T

[8] = molecular target: T4, human AXL with a mouse ECD (Mus musculus, UniProt Q00993, A791T/A867T/C878S/D603E/D853E/E609A/F637Y/G606S/G869S/H824Y/L452V/L825P/L872Q/P881A/R785Q/R828P/S823G/S856P/S873P/T871A/V766A); assay: Flow cytometry binding to HEK293T cells transfected with human AXL with mouse ECD; settings: 0.0024-10 μg/mL
T4 construct: aa 1-441); expressed in transfected cells; host or cells: HEK293T
T4 sequence (Q00993 19-888 with the stated changes): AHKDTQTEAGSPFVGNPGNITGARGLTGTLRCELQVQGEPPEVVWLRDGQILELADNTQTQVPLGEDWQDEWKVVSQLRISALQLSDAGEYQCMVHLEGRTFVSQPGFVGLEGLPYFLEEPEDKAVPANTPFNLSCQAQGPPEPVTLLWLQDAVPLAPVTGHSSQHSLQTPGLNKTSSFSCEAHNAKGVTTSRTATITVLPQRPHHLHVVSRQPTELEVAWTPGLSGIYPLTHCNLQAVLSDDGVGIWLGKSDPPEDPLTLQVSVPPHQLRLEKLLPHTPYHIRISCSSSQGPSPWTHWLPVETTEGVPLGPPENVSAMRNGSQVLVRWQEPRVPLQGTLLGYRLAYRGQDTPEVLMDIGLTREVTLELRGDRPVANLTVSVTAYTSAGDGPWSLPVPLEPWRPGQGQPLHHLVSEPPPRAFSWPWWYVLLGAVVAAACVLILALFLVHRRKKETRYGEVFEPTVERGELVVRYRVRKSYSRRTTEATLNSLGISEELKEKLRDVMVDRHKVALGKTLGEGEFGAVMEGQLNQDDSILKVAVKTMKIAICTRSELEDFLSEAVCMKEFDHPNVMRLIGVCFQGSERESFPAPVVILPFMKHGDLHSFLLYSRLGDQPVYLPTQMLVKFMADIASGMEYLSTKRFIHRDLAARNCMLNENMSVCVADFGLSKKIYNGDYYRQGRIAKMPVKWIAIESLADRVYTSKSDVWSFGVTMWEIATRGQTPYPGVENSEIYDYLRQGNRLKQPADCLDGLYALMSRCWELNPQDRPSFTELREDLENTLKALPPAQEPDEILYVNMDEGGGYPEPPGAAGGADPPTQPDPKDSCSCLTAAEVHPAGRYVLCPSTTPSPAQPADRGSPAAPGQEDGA

Row | Molecule | internalization of membrane-bound antibody [1] | anti-tumor activity [2] | anti-tumor activity [3] | induction of ADCC [4] | Binding EC50 human AXL Average (s.d.) [5] | Kdis [6] [s⁻¹] | Kon [6] [M⁻¹ s⁻¹] | Binding EC50 cynomolgus AXL Average (s.d.) [7] | binding to AXL with a mouse ECD [8]
1 | IgG1-AXL-107: human IgG1,κ anti-AXL antibody, VH SEQ ID NO:1, VL SEQ ID NO:2; Ig1 domain binding | internalize | only induced minor inhibition of tumor growth | did not show tumor growth inhibition | did not induce significant ADCC |  |  |  |  | 
2 | B1 | internalize |  |  | did not induce significant ADCC | 0.184 (0.117) μg/mL | 6.9e-05 | 210000 | 0.250 (0.066) μg/mL | not detectable
